Laboratory results: publication PMC10514967, “The terpene synthase (TPS) gene family in kiwifruit shows high functional redundancy and a subset of TPS likely fulfil overlapping functions in fruit flavour, floral bouquet and defence” (Molecular Horticulture, 2023)

B1: AcBCS (Actinidia chinensis var. chinensis) (protein)
chain: MAISCATALPIPTVSTKITMEPLVTRRSANYHPSIWGDHFLAYSSLPTEVDVNMEQEQLHQLKQKVIKMLMAAADKPSQMLNLIDRIQRLGVSYHFKTEIEAALKHIYESDHHFDDLYTVALFFRLLRQQGFPVSCEVFNKFKNNQGKFQECLIGDVVGILCLYEATHLRVRGEEILDEALSFTTTHLESMVPNLSNPVAEHAIHALNQPIHKGLTRLDARQYISFYEQDDSHNKDLLNFAKLDFNLLQKLHQRELCEITRWWKDLDFAKKLPFARDRLVESYFWVLGVYFEPQYWLARRILTKVIAMSSVIDDIYDVYGTLEELALFTDAIERWEISSLDKLPEYMKLCYQALLDIYSTIDEEMAKQGGSYRVYYAKSEMKNLVRGYFEEAKWFHQGYVPSMEEYMQVALLSSGYKMVTTTSFVGMGELATKEAFDWVSSYPLIVEAVSAIARLTDDIVGHKFEQQRGHVASAVECYMKQNGATEEEAIVELYEQVTNAWKDMNAECLYSTKVPMPLLVRVLNLARVINVLYKDEDSYTHSGTRTKNFVTSVLIDSVPIN

Assays:
[1] = system: AcLIS/NES; assay: SPME GC-MS of major terpene product, Michaelis-Menten fit; assay type: biochemical, Actinidia chinensis var. chinensis; details: 50 mM Bis-Tris propane pH 7.5, 10 mM MgCl2, 30 °C
From the text: SPME GC-MS of major terpene product, Michaelis-Menten fit on AcLIS/NES

[2] = substrate: CC(C)=CCC/C(C)=C/CC/C(C)=C/CO[P@@](=O)(O)OP(=O)(O)O; assay: as above; assay type: biochemical, Actinidia chinensis; details: 50 mM Bis-Tris propane pH 7.5, 10 mM MgCl2, 30 °C
From the text: SPME GC-MS of major terpene product, Michaelis-Menten fit on AcBCS

Molecule	Km [1] [µM]	Km [2] [µM]	Vmax [2] [µM/min]	kcat [2] [s⁻¹]	kcat/Km [2] [M⁻¹ s⁻¹]
CC(C)=CCC/C(C)=C/COP(=O)(O)OP(=O)(O)O [GDP]	30.9 ± 3.81				
CC(C)=CCC/C(C)=C/CC/C(C)=C/COP(=O)(O)OP(=O)(O)O [FDP]	7.43 ± 1.25				
B1		1.54 ± 0.54	0.013	0.0087 ± 0.002	5870 ± 1100
